# Source: paper PMC5796892, “Leishmania donovani Inhibitor of Serine Peptidases 2 Mediated Inhibition of Lectin Pathway and Upregulation of C5aR Signaling Promote Parasite Survival inside Host” (Frontiers in Immunology, 2018)
# What was measured:
# Details in all cases: both partners purified
# [1] = target: T1, C1 complex (C1qr2s2) (human, UniProt P02745 23-245; P02746 28-253; P02747 29-245); test: ELISA; C1 complex at 25 µg/ml bound to human IgM-coated plate (37°C, 2 h); rLdISP1/rLdISP2 0-50 µM added, 37°C, 2 h; bound ISP detected with anti-ISP1 or anti-ISP2 antibody; Kd taken as the free ligand at half saturation
# T1 construct: Complement C1q, subunit A; Complement C1q, subunit B; Complement C1q, subunit C; Complement C1r, serine protease of the C1 complex; the PDB entry was used only for docking and holds a fragment; Complement C1s, serine protease of the C1 complex; Held on plates coated with human IgM; also called C1 component; source: bought: Merk-Millipore (purified C1 complex); copies: + + + 2 + 2
# [2] = target: T1, C1 complex (C1qr2s2); test: ELISA; C1 complex at 50 µg/ml bound to human IgM-coated plate (37°C, 2 h); rLdISP1/rLdISP2 0-50 µM added, 37°C, 2 h; bound ISP detected with anti-ISP1 or anti-ISP2 antibody; Kd taken as the free ligand at half saturation
# [3] = target: T1, C1 complex (C1qr2s2); test: ELISA; C1 complex at 100 µg/ml bound to human IgM-coated plate (37°C, 2 h); rLdISP1/rLdISP2 0-50 µM added, 37°C, 2 h; bound ISP detected with anti-ISP1 or anti-ISP2 antibody; Kd taken as the free ligand at half saturation
# [4] = target: T1, C1 complex (C1qr2s2); test: ELISA; C1 complex at 12.5 µg/ml bound to human IgM-coated plate (37°C, 2 h); rLdISP1/rLdISP2 0-50 µM added, 37°C, 2 h; bound ISP detected with anti-ISP1 or anti-ISP2 antibody; Kd taken as the free ligand at half saturation
# [5] = target: T1, C1 complex (C1qr2s2); test: ELISA; C1 complex at 6.25 µg/ml bound to human IgM-coated plate (37°C, 2 h); rLdISP1/rLdISP2 0-50 µM added, 37°C, 2 h; bound ISP detected with anti-ISP1 or anti-ISP2 antibody; Kd taken as the free ligand at half saturation
binder,measurement,setting,value
recombinant Leishmania donovani inhibitor of serine peptidases 1 (natural protein) MSYCKIEAPYPTAEAGEKRIIFALDPKGDEAEQEQYMLQLIPGRVLEMSRNDAANHQTLGGSIEQHTVEGWGAKFFHVKLAKQAASTLMHVHDEDHSEKVRKFVAMPNPPLFPYRSRCPVVVYLPNDAELRYGIWCGGQQMQAVTE,Ka,[1],330000 M⁻¹
same,Kd,[1],2800 nM
same,Ka,[2],450000 M⁻¹
same,Kd,[2],2200 nM
same,Ka,[3],625000 M⁻¹
same,Kd,[3],1600 nM
same,Ka,[4],280000 M⁻¹
same,Kd,[4],3500 nM
same,Ka,[5],260000 M⁻¹
same,Kd,[5],3800 nM
